Tests used:
[1] = biological target: CXCR4 (Homo sapiens, UniProt P61073); assay: Intracellular calcium mobilization in Sup T1 cells; assay type: cell-based; conditions: 50 nM, Sup T1 cells expressing CXCR4, fura-2; representative of at least three independent experiments
[2] = biological target: CXCR4 mutant Y45A (human) (UniProt P61073); assay: 12G5 antibody competition binding on cells
[3] = biological target: CXCR4 mutant E288D (human) (UniProt P61073); assay: 12G5 antibody competition binding on cells
[4] = biological target: CXCR4 mutant DNX4 (human) (UniProt P61073); assay: 12G5 antibody competition binding on cells
[5] = biological target: CXCR4 mutant F87A (human) (UniProt P61073); assay: 12G5 antibody competition binding on cells
[6] = biological target: CXCR4 mutant Y255A (human) (UniProt P61073); assay: 12G5 antibody competition binding on cells
[7] = biological target: CXCR4 mutant Y121A (human) (UniProt P61073); assay: 12G5 antibody competition binding on cells
[8] = biological target: chemokine receptor CXCR4, wild type (human) (UniProt P61073); assay: 12G5 antibody competition binding on cells
[9] = biological target: CXCR4 mutant W252A (human) (UniProt P61073); assay: 12G5 antibody competition binding on cells
[10] = biological target: CXCR4 mutant F292A (human) (UniProt P61073); assay: 12G5 antibody competition binding on cells
[11] = biological target: CXCR4 mutant D171A (human) (UniProt P61073); assay: 12G5 antibody competition binding on cells

Row | Substance | Mobilization of calcium (Ca2+) [1] | decrease of binding against wild-type CXCR4 [2] [%] | decrease of binding against wild-type CXCR4 [3] [%] | increase of % bound 12G5 against wild-type CXCR4 [4] [%] | decrease of binding against wild-type CXCR4 [5] [%] | decrease of binding against wild-type CXCR4 [6] [%] | decrease of binding against wild-type CXCR4 [7] [%] | IC50 [8] [nM] | decrease of binding against wild-type CXCR4 [9] [%] | decrease of binding against wild-type CXCR4 [10] [%] | decrease of binding against wild-type CXCR4 [11] [%]
1 | stromal cell-derived factor-1α [SDF-1α] | rapid Ca^2+ mobilization | – | – | – | – | – | – | – | – | – | –
2 | DV1 dimer (peptide) | – | 20 | 40 | 15 | 40 | 20 | 20 | 3 | 20 | 20 | 60

— article PMC3476724 (Biochemistry, 2012)
